Measurements taken from the supplement of paper PMC12764529.
± gives the half width of the 95% confidence interval.

Key:
[1] = folding stability dG unfold from trypsin proteolysis; higher = more stable
Procedure, shortened: (§1)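 Designed mini-proteins (under 80 residues, no cysteine) in a PA-tagged cDNA display construct were digested with trypsin and chymotrypsin. Each protease was used at 11 concentrations (threefold dilutions) plus a no-protease condition, followed by sequencing. K50 was inferred by Bayesian fitting of sequencing counts, and unfolding free energy was derived against a sequence-predicted unfolded-state K50 and a shared folded-state K50, per protease or combined. Only designs with AlphaFold2 dimer inter-PAE above 15 were kept.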

[2] = folding stability dG unfold from chymotrypsin proteolysis; higher = more stable
Procedure, shortened: as §1

[3] = folding stability dG unfold (combined trypsin and chymotrypsin); higher = more stable
Procedure, shortened: as §1

Sequence	folding stability dG unfold [1] [kJ/mol]	folding stability dG unfold [2] [kJ/mol]	folding stability dG unfold [3] [kJ/mol]
SAGGETIPVVMYDPSTGKELTGEIPLKEALDLLAAGKKTAFIPAGGGPVKVHIEPLPDGTVLIVAESGSAGG [r13_171_TrMRF]	2.41 ± 0.109	2.97 ± 0.0879	2.66 ± 0.188
SPPHWMIMPTVERKDPNGEKKTVTYMIPVPPGNWDKMLDNIADEAGDPDLKIKEIEPSKNGFIMIKLKVKSA [r9_1101_TrROS]	2.08 ± 0.711	2.53 ± 2.01	0.414 ± 2.26
SAGGSAMVVRIEVDGKTIEIPAGASLEELKALLAENPGARFRIEVVEPPPPELSEEERKALEEARKSAGGSA [r15_36_TrROS_Hall]	5.66 ± 0.0795	5.53 ± 0.322	5.72 ± 0.418
SAGIPPDDPNDIYIVPVKITPVPDGSLQIEIIIVWPDGEVYTMEQEFDPNGNIEEMDMEPMPPEDIKESAGG [r19_285_TrROS]	4.6 ± 0.418	5.48 ± 0.339	5 ± 0.586
SAGGMTLRITTADGRVIEIEADSLEDALAALRTLLGLKPGDVLTVEVVVEVDGEKKTFTLTIVLPPEPSAGG [r13_145_TrROS_Hall]	20.7 ± 0.586	25.4 ± 0.372	> 25.1
SAGGSAGGSGIKITEYKINPETGTIEKTEIYIKPIPNTNKLKIEKKTKSIPILPDQKPDLSLDSAGGSAGGS [r12_700_TrMRF]	-0.984 ± 0.753	3.38 ± 1.51	1.73 ± 1.13
SNNNEVTIEIMIMFKYPRPEYDPDNGKPEPEPVYFMFPIKIEGKADDPEDAKRAADNILDRFLKDPDYIMSA [r9_77_TrROS]	7.47 ± 0.502	12.3 ± 0.188	10.9 ± 0.711
SAGKAIFTVVPIIPKTGKKYSISKFEITLKEGEKIPIKAIADKIPPKNYIVETEIHPDHIHVTVYVLDGSAG [r5_269_TrMRF]	2.78 ± 0.335	6.72 ± 0.46	5.22 ± 0.711
SAGGSAGGRIMIPVKNIKGQPAEEAKQWLKAILRELFPPGMKIDIDVQPDKDGEYWVTIDIKPPSAGGSAGG [r6_964_TrROS]	6.87 ± 0.962	10.4 ± 0.414	8.35 ± 1.84
SAGGMTITFPEGITITFSPDNTATVTINFPGNPLTLTLNATTLEEVIETAKKAAEEFRKPPPKLVLKVSAGG [r13_896_JUSTAS]	4.71 ± 0.146	7.2 ± 0.418	6.7 ± 0.402
SAGGSAGGSAGGKYKIKEIKVEEVDGKKYVKLVIYDKNGKPVKTIVMSLEELKKLPPELLSAGGSAGGSAGG [r7_263_TrROS_Hall]	6.48 ± 0.172	9.92 ± 0.502	7.89 ± 0.92
SAGAKIVSVEKVNGEKKITIKVKKEGDEIVIVFPKKNAKIEKKKNGTIEITIKEGETVIIVLKVKKKKSAGG [r19_227_TrROS_Hall]	7.6 ± 0.213	13.8 ± 0.343	12.5 ± 0.92
SAGGSAGGSAGGKVIDSEEFRNNFPSGGVLVDNNGNLYLVGNNYPIDPNQPFLYVSPDEISAGGSAGGSAGG [r7_507_TrMRF]	4.01 ± 0.36	6.51 ± 0.711	5.14 ± 0.92
SMPNTIEEIRFTFTLPDDTPVESEVDPDGKVTGTYPDGLKIEATLEPDSGKLTVKVTFPDGLPAEATIDLSA [r9_99_TrMRF]	6.68 ± 0.377	7.46 ± 0.176	7.09 ± 0.372
SAGGSAGGSAGMKYKATIPLPDGTTLTYESEDPEKAIEEITKETGVPKSKITITPIPELESAGGSAGGSAGG [r17_169_JUSTAS]	1.38 ± 0.126	2.97 ± 0.402	2.5 ± 0.406
SAGGWYLRIEPDDGRELEIPMNDPGLPLEDLADKLMKDMPGPMKIKVEFYHPNKPVEHTIKIPLPKNSAGGS [r16_216_TrROS]	1.85 ± 0.46	1.82 ± 1.38	1.77 ± 1.17
SAGGSAEVTITVEYDEETGVLKITITVPPGVTVEEIAEALKKLVPDVKVEKNEDGTITVYVKLPEKSAGGSA [r15_1057_TrROS_Hall]	10.2 ± 0.669	18.2 ± 0.669	17 ± 1.38
SAGKKTLIIRVKIRVRRKVDGKEEEVELELVIEVEAEEDEEEARRKAEELARKLAEEYNLEIEEVEIFPSAG [r5_497_TrROS_Hall]	17.5 ± 0.544	18 ± 0.31	17.8 ± 0.46
SAGGSKTLIIKIEKIEEFYPPFNNDKIKIPVSVYDPETGEKVLSNEEVAKILEKLFPGIKIGWEEGSAGGSA [r2_27_TrMRF]	4.41 ± 0.134	3.01 ± 0.151	3.92 ± 0.251
SAGGKVKVEIDPKTIKVTFYDEKGKKIGEIEIEVKPLPIVIENIPLEDIEALKEKFPDIPIIINPDNISAGG [r13_235_TrMRF]	10.3 ± 0.92	7.25 ± 0.711	7.65 ± 0.837
SAGGGMMTVTVTRVEREKPAGDEYLEKVLVTLPDSTLEATLTLKEKEEADKPPSVTVVPLEAVLALLASAGG [r13_540_JUSTAS]	3.88 ± 0.0795	-1.15 ± 1.3	2.39 ± 0.46

Sequence	folding stability dG unfold [1] [kJ/mol]	folding stability dG unfold [2] [kJ/mol]	folding stability dG unfold [3] [kJ/mol]
SAGGSAGGSAGKPKIKIEEIIEIEVITKKKIPETGKEKETPEKLYIIKVKVENIPPNLKVSAGGSAGGSAGG [r17_530_TrMRF]	1.95 ± 0.46	8.84 ± 0.251	5.77 ± 1.05
SAGGSAGGFKIRPIGVDDNYIVFRFRPDDPEALKKLGFKITGVEESGGSVEIIFRMPPEAKDLISAGGSAGG [r6_109_TrROS]	3.27 ± 0.502	1.67 ± 0.669	2.44 ± 0.502
SAGGSAGGSGLTKELAKKFNVTAIEEFENGLVKILTKPPIKGNPYLAIIDPKNKKVYIIPLNPSAGGSAGGS [r12_944_TrMRF]	3.55 ± 0.155	6.77 ± 0.343	5.41 ± 0.297
SAGKEKVLVIPVKVKPGEKIVVKVPSNSKILIIDLESGEIYEIDVPENVEPVFILPENKEYLIAVVFKSAGG [r19_78_TrMRF]	11.1 ± 0.339	16.4 ± 0.36	14.2 ± 0.46
SAGGSAGGSPNYRTVTVTLPNGEVYVIDVSQLIESDPNYVPGDPISDEELVALAKKRAEELELSSAGGSAGG [r6_65_JUSTAS]	11.4 ± 0.213	13.6 ± 0.13	12.7 ± 0.172
SAISPTERVEATDYKSPNGAVGSTTTFPDPEGSTVSIVREGSTWRLVTVNPDGSVSEREVSPEEAAALLASA [r9_1144_JUSTAS]	7.89 ± 0.167	7.15 ± 0.272	7.78 ± 0.28
SAGEMVVLRIRVKVPVTEVKFDKETGELTVEKKTVTREITLTVPADSPEARELAEKLRELGFEVEVVEASAG [r5_468_TrROS_Hall]	14 ± 0.586	14.8 ± 0.176	14.3 ± 0.259
SAGKITINVMMNPDGNYYVKIRIGGDGEPIMEFPVDSPEDAEEKAKAFADNLAKKYPNYKIEVDYMPFDSAG [r5_383_TrROS]	17.7 ± 1.34	12.8 ± 0.276	15.2 ± 0.502
SAGGSAGGSKNDWGEFDAEVPFFKEKKKVKIYKNPDNPNIYYIEFPKTGKIFKVYPNGEIKEESAGGSAGGS [r12_580_TrMRF]	4.23 ± 0.259	7.31 ± 0.711	6.23 ± 0.669
SAGGSAGGSAGGSGNYVPGPSLVTFYDPKTNKWTVVKSAPEEAVKLKASLPENVAKISLSAGGSAGGSAGGS [r4_282_JUSTAS]	-0.994 ± 0.879	-0.135 ± 1.13	-0.748 ± 1.34
SAGGSAGGSAGMETPVLYNVTVTPPDGSTTTYTVPEGLSEEEIRALLNVPASDTITFSPVSAGGSAGGSAGG [r11_340_JUSTAS]	7.81 ± 0.176	8.45 ± 0.121	8.33 ± 0.138
SAGGSAGGSHTIEIWIVKFPPDDFKGKTIEEMAKKFGDPDMPVEIVPIEITLPPDALKALLKNSAGGSAGGS [r12_178_TrROS]	3.22 ± 0.138	3.52 ± 0.255	3.54 ± 0.247
SAGGSAGGSAGRVVKITLPDGSSLDIDVPADDDLTKEEIEARLTVPPGEKVSIKSIEILEESAGGSAGGSAG [r3_465_JUSTAS]	0.196 ± 0.155	3.76 ± 0.138	2.63 ± 0.356
SAGGSAGGEKKGKPPVKIVIKVRDVDTGETRTITLTIEPDMTVEEIRELLRALLPPGAEVEIVPSAGGSAGG [r6_440_TrROS_Hall]	6.69 ± 0.218	14.4 ± 0.628	12.9 ± 0.669
SAGGSAGGSAGMEEIEIKFPENGKPLEIYRVPDGSAIIRNPGDGHYFQMDGNKIEIVGPLSAGGSAGGSAGG [r17_476_TrROS]	3.6 ± 0.201	1.48 ± 0.544	2.94 ± 0.753
SAGGSAGGSAGGSFTIASVETIRQPNGEILYRITLKFPDGTVEEVLEVPESEAGKVLSSLSAGGSAGGSAGG [r7_891_JUSTAS]	13.5 ± 0.502	13.95 ± 0.105	13.8 ± 0.293
SAGGSAGGSAMVLNVPLEELLKLLGVPKEEVSYKKLEDESYELTLPDGTKVKVIVPKEILESAGGSAGGSAG [r3_477_JUSTAS]	11.8 ± 0.41	12 ± 0.151	12.2 ± 0.544
SAGGSAPKNVTIEFPIMAKVPDPKWAIDEARELARKQGFENTEIENIHVNPGDPNYVMIDVKMTIPSAGGSA [r15_183_TrROS]	1.04 ± 0.46	1.16 ± 0.711	1.36 ± 1
SMEIRIKEVNEDGYLVIEIRVLSEDGKELTPEEVEELAEEIAAELKEKFPDVKVTVERLEDGTVRIVVEPSA [r9_485_TrROS_Hall]	13.4 ± 0.628	11.1 ± 0.628	12.1 ± 0.92
SAGGSAGGTLSIEELKELFPEAEKIEAEEVELTFTLPNGKKVKAKYRLVTVYRDNKPILLLVPGSAGGSAGG [r6_138_TrMRF]	11.8 ± 0.711	12.4 ± 0.234	12.4 ± 0.502
SAPPDFKIKDVKVRRHPHKQEDGGKEKEFPMYHVNVRIEDPNGNKIPINFMMDDPEEMLRFARKLLKKLSAG [r14_36_TrROS]	9.2 ± 0.586	9.08 ± 0.837	8.95 ± 1.05
